According to patent publication US20040161798A1 (University of Texas, published 2004):
No end group written: not given here.

Columns and labels:
GST-KIX [1] = target: T1, GST-KIX (mouse, UniProt P45481 378-817); assay: protein retained on TentaGel beads with scrambled peptide, SDS-PAGE/Western blot
T1 construct: range 378-817; also called GSTCBP(378-817); GST fusion of CBP(378-817)

ubiquitin [2] = target: T2, ubiquitin (Homo sapiens (Human), UniProt P0CG47 1-76, The screen used fluorescently labelled ubiquitin. The ITC and pull-down assays used unlabelled (native) ubiquitin.); assay: isothermal titration calorimetry in solution
T2 construct: Unlabeled in ITC and in the pull-down assays; also called native ubiquitin

GST-Mdm2 = target: T3, GST-Mdm2 (human, UniProt Q00987 1-188); assay: protein retained on TentaGel beads with scrambled peptide, SDS-PAGE/Western blot
T3 construct: range 1-188; also called GST fused human Mdm2
T3 sequence (Q00987 1-188): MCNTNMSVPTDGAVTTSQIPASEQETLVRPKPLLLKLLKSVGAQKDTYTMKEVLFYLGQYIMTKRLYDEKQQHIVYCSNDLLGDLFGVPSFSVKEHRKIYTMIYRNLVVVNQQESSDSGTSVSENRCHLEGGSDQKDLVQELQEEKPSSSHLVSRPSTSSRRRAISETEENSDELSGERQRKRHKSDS

maltose-binding protein = maltose-binding protein (UniProt P0AEX9 27-392 = MBP); assay: fluorescence polarization titration in solution
His6-KIX [3] = target: T4, His6-KIX (mouse, UniProt P45481 378-817); assay: fluorescence polarization after adding excess unlabeled peptide
T4 construct: range 378-817; Monomer; also called CBP(378-817) from pRSET-CBP(378-817); not shown: N-terminal His6 tag of vector pRSET-A
T4 sequence (P45481 378-817): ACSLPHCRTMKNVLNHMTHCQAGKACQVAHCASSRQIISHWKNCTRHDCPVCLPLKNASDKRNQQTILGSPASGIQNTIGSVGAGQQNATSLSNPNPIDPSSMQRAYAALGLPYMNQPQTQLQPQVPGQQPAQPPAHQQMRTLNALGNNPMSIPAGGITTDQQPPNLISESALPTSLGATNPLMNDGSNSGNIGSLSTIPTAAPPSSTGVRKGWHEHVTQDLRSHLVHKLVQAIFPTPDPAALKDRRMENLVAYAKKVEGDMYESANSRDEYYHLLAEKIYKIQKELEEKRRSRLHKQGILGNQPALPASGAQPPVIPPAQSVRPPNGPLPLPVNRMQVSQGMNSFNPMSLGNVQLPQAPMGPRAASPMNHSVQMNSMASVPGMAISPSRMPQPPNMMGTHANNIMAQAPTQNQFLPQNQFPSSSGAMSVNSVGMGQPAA
From the text: (§1) Fluorescence anisotropy measurements were taken every 30 seconds.
(§2) Complex half life of immobilized peptides and dimeric proteins. Peptide libraries are rich sources of protein-binding molecules and there exist many straightforward methods to screen such libraries. […] To test the surface-mediated avidity concept, a collection of peptides known to bind different proteins were assembled, some homodimers and some monomers.

GST-KIX [4] = target: T1, GST-KIX; assay: as above
From the text: as §1, §2

GST-KIX [5] = target: T1, GST-KIX; assay: dilution assay on TentaGel beads, Western blot
His6-KIX [6] = target: T4, His6-KIX; assay: fluorescence polarization titration in solution; paragraph 167 gives this value for His6-KIX and GST-KIX
From the text: (§3) Determination of solution binding constants.
as §2

GST-KIX [7] = target: T1, GST-KIX; assay: as above
From the text: as §3, §2

His6Gal80 = target: T5, His6Gal80 (UniProt P04387 1-435); assay: protein retained on TentaGel beads with scrambled peptide, SDS-PAGE/Western blot
T5 construct: also called Gal80 protein; Gal 80 protein; not shown: N-terminal His6 tag from vector pProEX-1
T5 sequence (looked up): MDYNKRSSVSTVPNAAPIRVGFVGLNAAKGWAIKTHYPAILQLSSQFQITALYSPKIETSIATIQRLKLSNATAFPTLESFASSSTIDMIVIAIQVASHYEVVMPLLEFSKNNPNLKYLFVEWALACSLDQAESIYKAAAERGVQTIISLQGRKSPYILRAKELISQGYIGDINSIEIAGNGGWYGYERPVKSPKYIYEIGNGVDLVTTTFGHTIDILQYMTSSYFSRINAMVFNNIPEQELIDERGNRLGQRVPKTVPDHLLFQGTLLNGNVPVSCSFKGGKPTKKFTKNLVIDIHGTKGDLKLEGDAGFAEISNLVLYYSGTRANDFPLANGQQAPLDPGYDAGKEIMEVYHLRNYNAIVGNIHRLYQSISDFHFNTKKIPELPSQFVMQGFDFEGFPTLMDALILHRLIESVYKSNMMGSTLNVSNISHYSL

ubiquitin [8] = target: T2, ubiquitin; assay: isothermal titration calorimetry in solution, against NH2-RWDRYYF

T1 sequence (P45481 378-817): as the sequence (P45481 378-817) above

## FSASFTEVVDAGWVSPWSVE (attached to TentaGel resin in the bead assays, Scrambled control of KIXbp1) [KIXbp1scram]
GST-KIX [1]
  binding result: no binding (tested: 300 nM)

B1: NH2-RWDRYYF (peptide)
peptide: H-RWDRYYF
notes: Hit of a seven residue peptide library; also called ubiquitin lead peptide; lead peptide
Ubiquitin [2]
  Kd: 33 µM

## NVKWLDPNQELPSFLTSLE (attached to TentaGel resin in the bead assays, Scrambled control of Mdm2bp) [Mdm2bpscram]
GST-Mdm2
  binding result: no binding (tested: 300 nM)

B2: Mdm2bp (peptide)
peptide: PLSQETFSDLWKLLPENNV
modifications: not fully specified (N-terminus, C-terminus); also: N-terminal carboxyfluorescein only in solution titrations, attached to TentaGel resin in bead assays
notes: also called p53 derived peptide; p53-derived peptide
maltose-binding protein
  binding result: no binding

B3: KIXbp1 (peptide)
peptide: SVPGSVSWFEFWSAVDAVET
modifications: not fully specified (N-terminus); also: N-terminal carboxyfluorescein only in solution titrations, attached to TentaGel resin in bead assays
notes: Phage display 20-mer
His6-KIX [3]
  half-life of the complex in solution: < 10 s
GST-KIX [4]
  half-life of the complex in solution: < 10 s
GST-KIX [5]
  half-life of the immobilized complex: > 2 h
His6-KIX [6]
  Kd: 8 µM
GST-KIX [7]
  Kd: 8 µM

B4: Gal80bpscram (peptide)
peptide: DLQRDTNKGFHEMFDWDYQN
modifications: attached to TentaGel resin in the bead assays
notes: Scrambled control of Gal80bp; also called Ga180bpscram; scrambled version of Gal80 bp
His6Gal80
  binding result: no binding (tested: 300 nM)

## H-WGLRALESRWDRYYF (Hit of the library NH2-X7-S-RWDRYYF) [NH2-WGLRALESRWDRYYF]
Ubiquitin [2]
  Kd: 12 µM
Ubiquitin [8]
  fold better in solution than the lead peptide: ~3 fold
